Where a chain is given by its changes, count along the chain named.
B1: monoclonal antibody 40H3 (antibody, V domains shown)
VH: QVQLKQSGPGLVQPSQSLSITCTVSGFSLTNYGIHWLRQSPGKGLEWLGMMWRGGGTDYNAAFISRLTITKDTSKSQVFFRMNNLQTNDTAIYYCARKGVGMGLGYWGQGTSVTVSS
VL: DIQMTQSPASQSASLGESVTITCLASQTIGTWVAWYQQKPGRSPQLLIYGATNLADGVPSRFSGSGSGTKFSFKISSLQAEDFVSYYCQQLYSNPYTFGGGTKLEIK
B2: monoclonal antibody 1D9 (antibody, V domains shown)
VH: QVQLKQSGRSLVQPSQSLSITCTVSGFSLTDYGVHWIRQSPGKGLEWLGVIWRSGRTDYNAVFMSRLSITKDNSKSQVFFKMNGLQTDDTAIYYCAKNGPFGNFAGYWGQGTPVAVSA
VL: DIVMSQSPSSLAVSVGEKVTMRCRSSQSLLDSYHQKNYLAWYLQKPGQSPKLLIYWASTRESGVPDRFTGSGSGTDFTLTISSVKAEDLAVYYCQEYYRYPYTFGGGTKLEIK
B3: monoclonal antibody 3D10 (antibody, V domains shown)
VH: QVQLKQSGPGLVQPSQSLSIICTVSGFSLTRNGVHWVRQSPGKGLEWVGVIWRSGRTDYDAAFMSRLSITKDNSKSQVFFKMNSLQADDTAIYYCVKNGDDGNYGTYWGQGTLVTVSA
VL: DIVMSQSPSSLGVSVGEKVTMSCKSSQSLLDSRNQKNYLAWYQQKPGQSPKLLIYWASTRESGVPDRFTGSGSGTEFTLTISSVKAEDLAIYYCQQYYNYPYTFGGGTKLEIT
B4: monoclonal antibody 4A4 (antibody, V domains shown)
VH: B2 VH with Q86L, T87I, D88E
VL: B2 VL with V91A
B5: monoclonal antibody 9G11 (antibody, V domains shown)
VH: B3 VH with I21T, S54G
VL: B3 VL
B6: monoclonal antibody 11E11 (antibody, V domains shown)
VH: B2 VH with R9P, D31N, I51K, S54G, V62A, K71R, K75R, G84S, P113L, A115T
VL: DIVMSQSPSSLAVSVGEKVSLTCKSSQSLLDNQKHYLAWYQQKPGQSPKLLIYWASTRESGVPDRFTGSGSGTEFTLTISSVKAEDLAVYYCQQFYNYPYTFGGGTKLEIK
B7: monoclonal antibody 11G3 (antibody, V domains shown)
VH: QVQLKQSGPSLVQPSQSLSITCTVSGFSLTNYGVHWVRQSPGKGLEWLGVMWRGGRTDYNAAFMSRLSITKDNSRSQVFFKMNSLQTDDAAIYYCAKNGPFGNFAGYWGQGTLVTVST
VL: B6 VL with A12P, Q27R

What follows are binders tested against human wtEGFR on F98_(EGFR) cells (human) (UniProt P00533) (assay: […], FACS buffer).

| Binder | median fluorescence intensity [units] |
| --- | --- |
| B1 | 187 |

These binders were tested against wtEGFR at physiological levels on WI-38 cells (human (endogenous in WI-38)) (UniProt P00533) (assay: […], FACS buffer).

| Binder | median fluorescence intensity [units] |
| --- | --- |
| B1 | < 100 |
| B2 | < 100 |
| B3 | < 100 |
| B4 | < 100 |
| B5 | < 100 |
| B6 | < 100 |
| B7 | < 100 |

Source: paper PMC6947844
